Columns and labels:
[1] = tested on: NIH3T3-AXL cl.7 fibroblasts; assay: Boyden chamber/transwell migration assay; format: cell-based; conditions: 10 μg/ml antibody, with or without 400 ng/ml Gas6, 7 h
Method: Transmigration experiments were performed in order to investigate whether the antibodies of the invention block cell migration. For this purpose, in the morning of day 1, NIH3T3-AXL cl.7 cells were seeded on 15 cm dished in normal growth medium, which in the evening was replaced by serum-reduced medium (DMEM, 0.5% FCS) in order to starve cells for 36 h. The next day, a FluoroBlock 96 well plate (Becton Dickinson #351164, 8 μm pore size) was coated with 10 μg collagen 1/ml 0.1 M acetic acid over night at 37° C. On day 3, the serum-reduced medium (DMEM, 0.5% FCS) was replaced by serum-free medium (DMEM, 0% FCS, 0.1% BSA) for another 4 h. Cells were harvested with 10 mM EDTA in PBS and pre-incubated with rat anti-AXL antibodies 4A6, 11B7 or 2A1 at a cell density of 4×10^5 cells/ml and an antibody concentration of 10 μg/ml for 45 min. 50 μl cell suspension (20,000 cells) per well were then placed in the top chamber of the FluoroBlock 96-well plate, 225 μl medium (DMEM, 0% FCS, 0.1% BSA) with or without 400 ng/ml mouse Gas6 (R&D Systems) were used per well in the bottom chamber. Cells were left to migrate for 7 h at 37° C. and stained afterwards with 4.2 μM calcein-AM (Molecular Probes #C3099) in PBS, 1 mM CaCl2, 1 mM MgCl2 for 1 h at 37° C. Using a Victor plate reader (Perkin Elmer), the fluorescence of each well was measured at a wavelength of 530 nm.

[2] = tested on: HUVEC spheroids; assay: Spheroid-based cellular angiogenesis assay; format: cell-based, human; conditions: 25 ng/ml VEGF-A, 24 h
Method: AXL is a key regulator of multiple angiogenic behaviors including endothelial cell migration, proliferation, and tube formation in vitro (Holland et al., Cancer Res: 65, 9294-9303, 2005). […] The experiments were pursued in modification of the originally published protocol (Korff and Augustin: J Cell Sci 112: 3249-58, 1999). In brief, spheroids were prepared as described (Korff and Augustin: J Cell Biol 143: 1341-52, 1998) by pipetting 500 human umbilical vein endothelial cells (HUVEC) in a hanging drop on plastic dishes to allow over night spheroid aggregation. 50 HUVEC spheroids were then seeded in 0.9 ml of a collagen solution (2 mg/ml) and pipetted into individual wells of a 24 well plate to allow polymerization. […] Plates were incubated at 37° C. for 24 hours and fixed by adding 4% paraformaldehyde. Sprouting intensity of HUVEC spheroids was quantified by an image analysis system that determines the cumulative sprout length per spheroid using an inverted microscope and the digital imaging software Analysis 3.2 (Soft imaging system, Munster, Germany). The mean of the cumulative sprout length of 10 randomly selected spheroids was analyzed as an individual data point.

[3] = tested on: serum-starved NIH3T3-AXL cl.7 fibroblasts; assay: Caspase-3/7 assay, Gas6-mediated anti-apoptosis; format: cell-based; conditions: 10 μg/ml antibody, with or without 400 ng/ml Gas6, compared to isotypic control antibody
Description: Induction of apoptosis and activation of caspases can result from a variety of stimuli including growth factor withdrawal, exposure to chemotherapeutic agents or radiation, or initiation of the Fas/Apo-1 receptor-mediated cell death process. […] In the present example we examined whether rat anti-AXL antibodies of the invention interfere with Gas6-mediated anti-apoptosis of serum-starved NIH3T3-AXL cl.7 fibroblasts, and thus induce apoptosis. Apoptosis rates were thereby determined by measurement of the cellular caspase-3/7 activity. For this purpose, NIH3T3-AXL cl.7 cells were seeded at a density of 1.5×10^3 cells per well in black clear-bottom 96 well plates (100 μl/well). The day after, normal growth medium was replaced by serum-reduced medium (DMEM, 0.5% FCS) to starve cells over night for 24 h. […] The cells were washed with PBS, covered with 60 μl of DMEM, 0% FCS, 0.01% BSA, and 10 μl of the respective antibody solution were added. After 1 h incubation at 37° C., 10 μl of DMEM, 0% FCS, 0.01% BSA with or without 3.2 μg/ml mouse Gas6 (R&D Systems) were added (the final concentrations of antibody and Gas6 were 10 μg/ml and 400 ng/ml, respectively), and cells were incubated at 37° C. for another 5 h. […] Using a Victor plate reader (Perkin Elmer), the fluorescence of each well was measured at an excitation wavelength of 485 nm and an emission wavelength of 530 nm.

[4] = tested on: NCI-H292 lung cancer cells; assay: Wound healing/scratch assay; format: cell-based, human; conditions: 10 μg/ml antibody, 24 h, compared to isotypic control antibody
Description: To examine the migration and proliferation rates of different cells and culture conditions, in vitro wound healing/scratch assays are being employed for many years. These assays generally involve growing a confluent cell monolayer first. A small area is then disrupted and a group of cells are being destroyed or displaced by scratching a line through the layer with, for example, a pipette tip. The open gap is then inspected microscopically over time as the cells move in and fill the damaged area (“healing”). In brief, 1.5×10^6 NCI-H292 lung cancer cells were seeded per well of a 12 well dish and cultured in normal growth medium (RPMI, 10% FCS). After 8 h, cells were rinsed with PBS and starved in low serum medium (RPMI, 0.5% FCS) over night for 24 h. Using a sterile 200 μl pipette tip, three separate uniform wounds per well were scratched through the confluent NCI-H292 cell monolayers. […] Cells were permitted to migrate into the area of clearing for 24 h, washed once with PBS and fixed with ice cold Methanol (100%) at −20° C. After cells were stained with crystal violet (0.5% in 20% Methanol), rinsed with water and dried over night, photos of the wounds were taken.

B1: 11B7: antagonistic rat anti-AXL monoclonal antibody, rat IgG1 (antibody, V domains shown)
VL: DIQMTQAPSSLPASLGDRVTITCRASQDIGNYLRWFQQKPGKSPRLMISGATNLAAGVPSRFSGSRSGSDYSLTISSLESEDMADYYCLQSKESPWTFGGGTKLELK
VH: EVQLQESGPGLVKPSQSLSLTCSVTGYSITSNYWGWIRKFPGDKMEWMGYITYSGSTSYNPSLKSRISITRDTSKNQFFLQLNSVTSEDTATYYCAITTFYYWGQGVMVTVSS
directed cell migration [1]: reduced both basal and Gas6-induced migration | HUVEC sprouting at the highest antibody concentration [2]: reduced HUVEC sprouting to basal levels | anti-apoptosis (caspase-3/7 activity) [3]: reduced Gas6-mediated anti-apoptosis | re-population of the cleared area (wound closure) [4]: reduced the re-population of the cleared area

— patent US8933202B2, “AXL antibodies” (U3 Pharma GmbH, priority 2007, dated 2015)
